Experimental data as given in patent US20020045591A1, “Methods and therapeutic compositions for treating cancer” (priority 1998, published 2002).

Key:
β-catenin = molecular target: T1, β-catenin (Cricetulus griseus, UniProt G3H996); assay: Co-immunoprecipitation of cadherin derivatives with β-catenin in CHO cells; type: binding; details: stably transfected CHO cells, FIG. 2B
T1 construct: resulting from the stabilization of the endogenous β-catenin by the transfected cadherin derivatives; endogenous in cells; host or cells: CHO cells, stably or transiently transfected with cadherin derivatives only
T1 sequence (G3H996 1-781): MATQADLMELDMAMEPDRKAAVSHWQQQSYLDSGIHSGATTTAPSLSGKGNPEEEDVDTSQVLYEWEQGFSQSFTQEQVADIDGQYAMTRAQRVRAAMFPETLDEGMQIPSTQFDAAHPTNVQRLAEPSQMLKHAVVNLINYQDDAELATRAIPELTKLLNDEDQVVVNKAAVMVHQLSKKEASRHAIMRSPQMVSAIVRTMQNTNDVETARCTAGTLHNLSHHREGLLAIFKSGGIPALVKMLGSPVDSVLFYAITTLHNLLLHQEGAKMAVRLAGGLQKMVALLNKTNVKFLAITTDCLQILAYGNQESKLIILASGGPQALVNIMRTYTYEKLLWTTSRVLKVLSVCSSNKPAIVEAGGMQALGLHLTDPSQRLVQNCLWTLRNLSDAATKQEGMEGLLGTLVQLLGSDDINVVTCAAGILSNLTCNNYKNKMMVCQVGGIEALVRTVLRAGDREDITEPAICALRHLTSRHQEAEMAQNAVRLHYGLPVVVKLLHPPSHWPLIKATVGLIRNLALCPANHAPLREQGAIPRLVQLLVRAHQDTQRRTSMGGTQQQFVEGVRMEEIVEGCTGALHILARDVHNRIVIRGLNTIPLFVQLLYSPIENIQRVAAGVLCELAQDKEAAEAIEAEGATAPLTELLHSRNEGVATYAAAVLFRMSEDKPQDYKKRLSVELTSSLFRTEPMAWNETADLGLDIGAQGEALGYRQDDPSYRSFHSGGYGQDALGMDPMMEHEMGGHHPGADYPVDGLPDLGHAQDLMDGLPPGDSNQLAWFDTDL
Text: Immunoblotting and immunoprecipitation: The following antibodies were used: polyclonal pan-cadherin or monoclonal anti cadherin (CH-19) and polyclonal anti β-catenin antibodies were from Sigma (Holon, Israel). Monoclonal anti β-catenin, 5H10 (from M. Wheelock), anti IL2Rα (from UBI), anti flag (M2, from IBI), anti HA (clone 12CA5, from Boehringer Mannheim, Germany), anti GFP (polyclonal, from Clontech, Palo Alto, Calif.), anti LEF-1 (polyclonal, kindly provided by Dr. R. Grosschedl). Secondary antibodies for Western blotting were goat anti rabbit or anti mouse conjugated to HRP (Amersham, Buckinghampshire, UK), and for immunofluorescence analysis the secondary antibodies were FITC-goat anti mouse (Cappel, USA) or rhodamine-anti rabbit antibodies (from Jackson Immuno-Research, West Grove, Pa.). Cells were harvested in Laemmli's sample buffer and equal amounts of total cell protein from the different clones, or from transient transfections, were separated by SDS-PAGE, electrotransferred to nitrocellulose and incubated with the different antibodies. For immunoprecipitation, cells were harvested in IP buffer (20 mM Tris pH 8.0, 1% Triton X-100, 140 mM NaCl, 10% glycerol, 1 mM EGTA, 1.5 mM MgCl2, 1 mM DTT, 1 mM sodium vanadate, and 50 μg/ml PMSF). […]

CHO cells = assay: Immunofluorescence localization in CHO cells; type: cell-based; details: stably transfected CHO cells, FIG. 4
Text: Immunofluorescence microscopy: Cells cultured on glass coverslips were fixed with 3% paraformaldehyde in phosphate-buffered saline (PBS) and permeabilized with 0.5% Triton X-100. CHO cells were immunofluorescently labeled as described (Levenberg S. et al. (1998) Long-range and selective autoregulation of cell-cell and cell-matrix adhesions by cadherin or integrin ligands. J. Cell Sci. 111:347-357). Nuclei were visualized using DAPI and the fluorescence was examined using a Zeiss Axiophot microscope and a x100/1.3 Planapochromat objective.

B1: N-cadherin tail: Cytoplasmic domain of chicken N-cadherin tagged with a Flag epitope (protein)
chain: MKRRDKERQAKQLLIDPEDDVRDNILKYDEEGGGEEDQDYDLSQLQQPDTVEPDAIKPVGIRRLDERPIHAEPQYPVRSAAPHPGDIGDFINEGLKAADNDPTAPPYDSLLVFDYEGSGSTAGSLSSLNSSSSGGEQDYDYLNDWGPRFKKLADMYGGGDD
modifications: left off: small tags and cut ends
- interaction with β-catenin by co-immunoprecipitation (β-catenin): direct interaction
- subcellular localization of cadherin derivative and β-catenin (CHO cells): mainly localized in the nucleus
